B1: CPEB3 Ribozyme (parent)
chain: UAACAGGGGGCCACAGCAGAAGCGUUCACGUCGCAGCCCCUGUCAGAUUCUGGUGAAUCUGCGAAUUCUGCUGUAUAUCUC

Variants of: B1
Assay: self-cleavage, relative activity (ratio to wild type); higher = more cleavage; in vitro, sequencing
How it was run: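 For each CPEB3 ribozyme variant, relative activity is its cleaved/total read fraction divided by the unmutated ribozyme's. Barcoded error-prone PCR libraries were transcribed by T7 RNA polymerase (5 hours, 37°C) and held in DNase I for 15 min before an EDTA stop, with cleavage occurring throughout. Template-switching reverse transcription and Illumina sequencing were used to read the RNAs. A 5-read minimum applied, and results are the mean of three batches.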

Variant | self-cleavage
UAACAGGGGGCCACAGCAGAGGCGUUCACGUCGCAGCCCCUGUCAGAUUCUAGUGAAUCUGCGAAUUCUGCUGUAUAUCUC | 0.72
UAACAGGGGGCCACAGCAGAGGCGUUCAUGUCGCAGCCCCUGUCAGAUUCUGGUGAAUCUGCGAAUUCUGCUGUAUAUCUC | 0.28
UAACAGGGGGCCACAGCAGAGGCGUUCACGUCGCAGCUCCUGUCAGAUUCUGGUGAAUCUGCGAAUUCUGCUGUAUAUCUC | 0.57
UAACAGGGGGCCACAGCAGAGGCGUUCACGUCGCAGCACCUGUCAGAUUCUGGUGAAUCUGCGAAUUCUGCUGUAUAUCUC | 0.33
UAACAGGGGGCCACAGCAGAGGCGUUCACGUCGCAGCGCCUGUCAGAUUCUGGUGAAUCUGCGAAUUCUGCUGUAUAUCUC | 0.26
UAACAGGGGGCCACAGCAGAGGCGUUCACGUCGCAGCCCCUGUCAGAUUCUGGUGAAUCUGCGAAUUCUGCUGUAUUUCUC | 0.71
UAACAGGGGGCCACAGCAGAGGCGUUCACGUCGCAGCCCCUGUCAGAUUCUGGUGAAUCUGCGAAUUCUGCUGUAUGUCUC | 0.66
UAACAGGGGGCCACAGCAGAGGCGUUCACGUCGCAGCCCCUGUCAGAUUCUGGUGAAUCUGCGAAUUCUGCUGUAUCUCUC | 0.63
UAACAGGGGGCCACAGCAGAGGCGUUCACGUCGCAGCCCCUGUAAGAUUCUGGUGAAUCUGCGAAUUCUGCUGUAUAUCUC | 0.18
UAACAGGGGGCCACAGCAGAGGCGUUCACGUCGCAGCCCCUGUUAGAUUCUGGUGAAUCUGCGAAUUCUGCUGUAUAUCUC | 0.26
UAACAGGGGGCCACAGCAGAGGCGUUCACGUCGCAGCCCCUGUCAGAUUCUGAUGAAUCUGCGAAUUCUGCUGUAUAUCUC | 0.58
UAACAGGGGGCCACAGCAGAGGCGUUCACGUCGCAGCCCCUGUCAGAUUCUGGUGAAUCUGCGAAUUCUACUGUAUAUCUC | 0.22
UAACAGGGGGCCACAGCAGAGGCGUUCACGUCGCAGCCCCUGUCAGAUUCUGGUGAAUCUGCUAAUUCUGCUGUAUAUCUC | 0.61
UAACAGGGGGCCACAGCAGAGGCGUUCACGUCGCAGCCCCUGUCAGAUUCUGGUGAAUCUGCGAAUUCUGCUAUAUAUCUC | 1.21
UAACAGGGGGCCACAGCAGAGACGUUCACGUCGCAGCCCCUGUCAGAUUCUGGUGAAUCUGCGAAUUCUGCUGUAUAUCUC | 0.17
UAACAGGGGGCCACAGCAGAGGUGUUCACGUCGCAGCCCCUGUCAGAUUCUGGUGAAUCUGCGAAUUCUGCUGUAUAUCUC | 0.2
UAACAGGGGGCCACAGCAGAGGAGUUCACGUCGCAGCCCCUGUCAGAUUCUGGUGAAUCUGCGAAUUCUGCUGUAUAUCUC | 0.32

Variant | self-cleavage
UAACAGGGGGCCACAGCAGAGGGGUUCACGUCGCAGCCCCUGUCAGAUUCUGGUGAAUCUGCGAAUUCUGCUGUAUAUCUC | 0.37
UAACAGGGGGCCACAGCAGAGGCGUUCACCUCGCAGCCCCUGUCAGAUUCUGGUGAAUCUGCGAAUUCUGCUGUAUAUCUC | 0.15
UAACAGGGGGCCACAGCAGAGGCGUUCACUUCGCAGCCCCUGUCAGAUUCUGGUGAAUCUGCGAAUUCUGCUGUAUAUCUC | 0.21
UAACAGGGGGCCACAGCAGAGGCGUUCACAUCGCAGCCCCUGUCAGAUUCUGGUGAAUCUGCGAAUUCUGCUGUAUAUCUC | 0.32
UAACAGGGGGCCACAGCAGAGGCGUUCACGUCGCAGCCCCUAUCAGAUUCUGGUGAAUCUGCGAAUUCUGCUGUAUAUCUC | 0.25
UAACAGGGGGCCACAGCAGAGGCGUUCACGUCGCAGCCCCUUUCAGAUUCUGGUGAAUCUGCGAAUUCUGCUGUAUAUCUC | 0.37
UAACAGGGGGCCACAGCAGAGGCGUUCACGUGGCAGCCCCUGUCAGAUUCUGGUGAAUCUGCGAAUUCUGCUGUAUAUCUC | 0.23
UAACAGGGGGCCACAGCAGAGGCGUUCACGUAGCAGCCCCUGUCAGAUUCUGGUGAAUCUGCGAAUUCUGCUGUAUAUCUC | 0.23
UAACAGGGGGCCACAGCAGAGGCGUUCACGUUGCAGCCCCUGUCAGAUUCUGGUGAAUCUGCGAAUUCUGCUGUAUAUCUC | 0.22
UAACAGGGGGCCACAGCAGAGGCGUUCACGUCGCAGCCCCUGUCAGAUUCUGGUGAAUCUACGAAUUCUGCUGUAUAUCUC | 0.2
UAACAGGGGGCCACAGCAGAGGCGUUCACGUCGCAGCCCCUGUCAGAUUCUGGUGAAUCUUCGAAUUCUGCUGUAUAUCUC | 0.34
UAACAGGGGGCCACAGCAGAGGCGUUCACGUCGCAGCCCCUGUCAGAUUCUGGUGAAUCUGAGAAUUCUGCUGUAUAUCUC | 0.2
UAACAGGGGGCCACAGCAGAGGCGUUCACGUCGCAGCCCCUGUCAGAUUCUGGUGAAUCUGUGAAUUCUGCUGUAUAUCUC | 0.19
UAACAGGGGGCCACAGCAGAGGCGUUCACGUCGCAGCCCCUGUCAGAUUCUGGUGAAUCUGGGAAUUCUGCUGUAUAUCUC | 0.22
UAACAGGGGGCCACAGCAGAGGCGCUCACGUCGCAGCCCCUGUCAGAUUCUGGUGAAUCUGCGAAUUCUGCUGUAUAUCUC | 0.29
UAACAGGGGGCCACAGCAGAGGCGAUCACGUCGCAGCCCCUGUCAGAUUCUGGUGAAUCUGCGAAUUCUGCUGUAUAUCUC | 0.24
UAACAGGGGGCCACAGCAGAGGCGUUCACGUCGCAGCCCCUGUCAGAUUCUGGUGAAUCUGCGAAUUCUGCUGUAUAUUUC | 0.76

— the RNAGym collection of RNA variant scans (doi:10.1093/nar/gkz1192)
